Entries after “also recorded” stand apart in the source; their conditions may differ.
How the values were obtained:
GH5 = GH5 (Caldicellulosiruptor saccharolyticus, UniProt A4XIF7); assay: Product inhibition by cellobiose of pNPC hydrolysis; type: biochemical; details: 5 mM pNPC, optimal condition; read-out: IC50 of cellobiose on CBH activity
Procedure: (§1) To examine the catalytic activity of GH5 in detail, the hydrolysis of nitrophenol from 4-nitrophenyl-β-D-cellobioside (pNPC) and 4-nitrophenyl-β-D-glucopyranoside (pNPG) are measured. Under the optimum reaction condition that is previously found (80° C. and pH 5.5), pNPC was hydrolyzed by both CBM3-GH5 and GH5. […] The product inhibition by cellobiose is examined by adding unlabeled cellobiose into reaction mixtures containing 5 mM of pNPC. The IC50 inhibition constant for cellobiose on the catalytic activity of GH5 is found at c.a. 30 mM. The kinetics of pNPC hydrolysis by CBM3-GH5 and GH5 are compared to see whether the CBM3 domain can influence the catalytic activity of the GH5 domain on a soluble substrate.
(§2) GH5 and CBM3-GH5 (constructs C and E, respectively) are tested to determine the influence of product and ionic strength on CBH activity.

[1] = Effect of IL concentration on CBH activity, CMC substrate, DNS; type: biochemical; details: EMIM acetate
Procedure: GH5 and CBM3-GH5 (constructs C and E, respectively) are tested to determine the effect of IL concentration on the CBH activity of GH5. Carboxymethyl cellulose (CMC) is used as the substrate for the enzymatic reaction, and the amount of released products containing reducing ends is measured by DNS. The CBH activity remains fairly highly from 0% to more than 20% EMIM acetate. From 25% EMIM acetate the CBH activity starts to decrease and the CBH activity diminished at about 60% EMIM acetate.

[2] = Enzyme digestion of solid substrates, products by HPAEC; type: biochemical; details: 30 mg substrate, 10 μg protein, 80° C., pH 5.5, 17 hours
Procedure: The effect of CBM3 on the cellobiohydrolase activity on solid substrates by GH5 is tested on Avicel and corn stover. These solid substrates are pretreated with the ionic liquid 1-ethyl-3-methylmidazolium acetate ([C2mim][OAc]). […] Enzyme digestion is performed by mixing 30 mg of substrate and 10 μg of protein in 0.5 mL volume and incubating at 80° C. and pH 5.5 for 17 hours. GH5 and CBM3-GH5 are able to produce more cellobiose and glucose from pre-treated Avicel than untreated Avicel.

[3] = CMCase activity of constructs; type: biochemical
Source text: (§3) CBH is a modular cellulolytic gene from a hyperthermophilic and anaerobic bacterium Caldicellulosiruptor saccharolyticus (C. Sac), which contains the glycoside hydrolase family 10 (GH10), carbohydrate binding module family 3 (CBM3), and glycoside hydrolase family 5 (GH5) domains in a single open reading frame (ORF). We have expressed, purified, and characterized the function of the recombinant GH5 with and without CBM3 domain. The nucleotide sequence of the ORF is codon-optimized and then synthesized for protein expression in E. coli. The translated products contain c-terminal V5 epitope and His (×6) tags from the pDEST42 vector sequence. The recombinant proteins CBM3-GH5 and GH5 are expressed in BL21(DE3)Star E. coli and purified by affinity (HisTrap FF) and ion-exchange (HiTrap Q) chromatography methods. The average yields are 4 mg and 3 mg per liter, respectively.

[4] = Hydrolysis of pNPG (β-glucosidase activity); type: biochemical; details: 80° C. and pH 5.5, up to one hour
Procedure: as §1

[5] = Hydrolysis of pNPC, kinetics by Eadie-Hofstee plots; type: biochemical; details: 80° C. and pH 5.5
Procedure: as §1

[6] = CBH (cellobiohydrolase or exoglucanase) activity of constructs; type: biochemical
Source text: as §3

[7] = Influence of ionic strength (NaCl) on CBH activity; type: biochemical; details: 2.3 M NaCl
Procedure: as §2

[8] = substrate: O=[N+]([O-])c1ccc(O[C@@H]2O[C@H](CO)[C@@H](O[C@@H]3O[C@H](CO)[C@@H](O)[C@H](O)[C@H]3O)[C@H](O)[C@H]2O)cc1; assay: hydrolysis kinetics of 4-nitrophenyl-β-D-cellobioside (pNPC) by CBM3-GH5 (Eadie-Hofstee plots); type: biochemical, Caldicellulosiruptor saccharolyticus; details: other: pNPC, 80° C., pH 5.5, Eadie-Hofstee plot
Source text: as §3, §1

[9] = substrate: O=[N+]([O-])c1ccc(O[C@@H]2O[C@H](CO)[C@@H](O[C@@H]3O[C@H](CO)[C@@H](O)[C@H](O)[C@H]3O)[C@H](O)[C@H]2O)cc1; assay: hydrolysis kinetics of 4-nitrophenyl-β-D-cellobioside (pNPC) by GH5 (Eadie-Hofstee plots); type: biochemical, Caldicellulosiruptor saccharolyticus
Source text: as §3, §1

[10] = Enzymatic activity on CMC under different pH and temperature, DNS assay; type: biochemical
Procedure: To determine the optimum conditions for the enzymatic activity of GH5 on CMC under different pH and temperature ranges was measured by DNS assay. The maximum activity is observed at 80° C. and at pH between 4.7 and 5.5; the optimum conditions of the GH5 activity on CMC is at a higher temperature and at a lower pH than the optimum growth conditions of C. sac (70° C., at neutral pH). In addition, Csac GH5 is also active on 4-nitrophenyl β-D-cellobioside, but not active on 4-nitrophenyl β-D-glucopyranoside (up to 1 hr incubation). Therefore, GH5 is a cellobiohydrolase/exoglucanase that produces cellobiose.

[11] = other: 80° C., 50 mM MES, pH 5.5 (general description of the enzyme)
[12] = other: pNPC, 80° C., pH 5.5, Eadie-Hofstee plot

Sequence of GH5 (A4XIF7 entry or part of it): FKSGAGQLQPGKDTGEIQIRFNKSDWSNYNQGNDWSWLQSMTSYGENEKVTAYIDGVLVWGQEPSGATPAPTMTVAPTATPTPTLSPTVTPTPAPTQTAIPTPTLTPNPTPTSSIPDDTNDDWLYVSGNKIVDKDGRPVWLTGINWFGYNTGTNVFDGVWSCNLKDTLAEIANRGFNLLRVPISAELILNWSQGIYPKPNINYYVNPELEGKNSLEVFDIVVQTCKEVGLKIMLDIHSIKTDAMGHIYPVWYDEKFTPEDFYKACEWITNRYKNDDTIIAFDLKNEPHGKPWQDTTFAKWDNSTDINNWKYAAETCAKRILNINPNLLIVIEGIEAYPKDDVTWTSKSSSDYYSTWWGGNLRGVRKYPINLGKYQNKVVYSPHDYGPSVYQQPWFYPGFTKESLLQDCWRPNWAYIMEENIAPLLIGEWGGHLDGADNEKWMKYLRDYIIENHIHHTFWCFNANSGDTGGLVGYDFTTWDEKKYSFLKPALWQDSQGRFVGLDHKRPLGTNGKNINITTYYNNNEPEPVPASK

Molecule | IC50 (GH5) [mM] | CBH activity (cellobiohydrolase or exoglucanase) [6] | IL concentration at which CBH activity diminished [1] | IL concentration from which CBH activity starts to decrease [1] [%] | Sugar released from solid substrates [2] | CMCase activity [3] | Activity on pNPG [4] | Activity on pNPC [5] | Residual CBH activity [7] | Km [8] [µM] | Vmax [8] [µmol/min/mg] | kcat [8] [s⁻¹] | IL concentration up to which the enzyme is active/tolerant [1] | Km [9, 11] [µM] | Vmax [9, 11] [µmol/min/mg] | Km [9, 12] [µM] | Vmax [9, 12] [µmol/min/mg] | kcat [9, 12] [s⁻¹] | Temperature of maximum (optimal) activity [10] | pH of maximum (optimal) activity [10]
Caldicellulosiruptor saccharolyticus (Csac) CBM3-GH5 cellobiohydrolase, construct E (CsacF7-6), amino acids 374-1039 of Csac CBH, SEQ ID NO:4 … (protein, C-terminal V5 and His6 tags (pDEST42); E. coli BL21(DE3) Star; purified) MGVTTSSPTPTPTPTVTVTPTPTPTPTPTVTATPTPTPTPVSTPATGGQIKVLYANKETNSTTNTIRPWLKVVNSGSSSIDLSRVTIRYWYTVDGERAQSAVSDWAQIGASNVTFKFVKLSSSVSGADYYLEIGFKSGAGQLQPGKDTGEIQIRFNKSDWSNYNQGNDWSWLQSMTSYGENEKVTAYIDGVLVWGQEPSGATPAPTMTVAPTATPTPTLSPTVTPTPAPTQTAIPTPTLTPNPTPTSSIPDDTNDDWLYVSGNKIVDKDGRPVWLTGINWFGYNTGTNVFDGVWSCNLKDTLAEIANRGFNLLRVPISAELILNWSQGIYPKPNINYYVNPELEGKNSLEVFDIVVQTCKEVGLKIMLDIHSIKTDAMGHIYPVWYDEKFTPEDFYKACEWITNRYKNDDTIIAFDLKNEPHGKPWQDTTFAKWDNSTDINNWKYAAETCAKRILNINPNLLIVIEGLEAYPKDDVTWTSKSSSDYVSTWWGGNLRGVRKYPINLGKYQNKVVYSPHDYGPSVYQQPWFYPGFTKELLQDCWRPNWAYLMEENIAPLLIGEWGGHLDGADNEKWMKYLRDYIIENHIHHTFWCFNANSGDTGGLVGYDFTTWDEKKYSFLKPALWQDSQGRFVGLDHKRPLGTNGKNINITTYYNNNEPEPVPASK | – | Yes | about 60% | 25 | cellobiose is the predominant sugar released; also recorded: produced more cellobiose than GH5 | Yes | not hydrolyzed | hydrolyzed | at least 80% | 2200 | 0.71 | 0.767 | – | – | – | – | – | – | – | –
CBH protein: Protein encoded by the YP_001179883 gene of Caldicellulosiruptor saccharolyticus, domains GH10, CBM3, GH5 (SEQ ID NO:2) (protein, listed as Caldicellulosiruptor saccharolyticus) MKRNLFRIVSRVVLIAFIASISLVGAMSYFPVETQAAPDWSIPSLCESYKDDFMIGVAIPARCLSNDTDKRMVLKHFNSITAENEMKPESLLAGQTSTGLSYRFSTADAFVDFASTNKIGIRGHTLVWHNQTPDWFFKDSNGQRLSKDALLARLKQYIYDVVGRYKGKVYAWDVVNEAIDENQPDSYRRSTWYEICGPEYIEKAFIWAHEADPNAKLFYNDYNTEISKKRDFIYNMVKNLKSKGIPIHGIGMQCHINVNWPSVSEIENSIKLFSSIPGIEIHITELDMSLYNYGSSENYSTPPQDLLQKQSQKYKEIFTMLKKYKNVVKSVTFWGLKDDYSWLRSFYGKNDWPLLFFEDYSAKPAYWAVLEASGVTTSSPTPTPTPTVTVTPTPTPTPTPTVTATPTPTPTPVSTPATGGQIKVLYANKETNSTTNTIRPWLKVVNSGSSSIDLSRVTIRYWYTVDGERAQSAVSDWAQIGASNVTFKFVKLSSSVSGADYYLEIGFKSGAGQLQPGKDTGEIQIRFNKSDWSNYNQGNDWSWLQSMTSYGENEKVTAYIDGVLVWGQEPSGATPAPTMTVAPTATPTPTLSPTVTPTPAPTQTAIPTPTLTPNPTPTSSIPDDTNDDWLYVSGNKIVDKDGRPVWLTGINWFGYNTGTNVFDGVWSCNLKDTLAEIANRGFNLLRVPISAELILNWSQGIYPKPNINYYVNPELEGKNSLEVFDIVVQTCKEVGLKIMLDIHSIKTDAMGHIYPVWYDEKFTPEDFYKACEWITNRYKNDDTIIAFDLKNEPHGKPWQDTTFAKWDNSTDINNWKYAAETCAKRILNINFNLLIVIEGIEAYPKDDVTWTSKSSSDYYSTWWGGNLRGVRKYPINLGKYQNKVVYSPHDYGPSVYQQPWFYPGFTKESLLQDCWRPNWAYIMEENIAPLLIGEWGGHLDGADNEKWMKYLRDYIIENHIHHTFWCFNANSGDTGGLVGYDFTTWDEKKYSFLKPALWQDSQGRFVGLDHKRPLGTNGKNINITTYYNNNEPEPVPASK | – | – | – | – | – | – | – | – | – | – | – | – | up to 50% | – | – | – | – | – | about 80 °C | –

More lines, main results first:

IC50 (GH5) [mM] | CBH activity (cellobiohydrolase or exoglucanase) [6] | Molecule | IL concentration at which CBH activity diminished [1] | IL concentration from which CBH activity starts to decrease [1] [%] | Sugar released from solid substrates [2] | CMCase activity [3] | Activity on pNPG [4] | Activity on pNPC [5] | Residual CBH activity [7] | Km [8] [µM] | Vmax [8] [µmol/min/mg] | kcat [8] [s⁻¹] | IL concentration up to which the enzyme is active/tolerant [1] | Km [9, 11] [µM] | Vmax [9, 11] [µmol/min/mg] | Km [9, 12] [µM] | Vmax [9, 12] [µmol/min/mg] | kcat [9, 12] [s⁻¹] | Temperature of maximum (optimal) activity [10] | pH of maximum (optimal) activity [10]
~30 | – | O=C[C@H](O)[C@@H](O)[C@H](O[C@@H]1O[C@H](CO)[C@@H](O)[C@H](O)[C@H]1O)[C@H](O)CO [cellobiose] | – | – | – | – | – | – | – | – | – | – | – | – | – | – | – | – | – | –
– | Yes | Caldicellulosiruptor saccharolyticus (Csac) GH5 cellobiohydrolase domain, construct C (CsacF7-4), amino acids 507-1039 of Csac CBH, SEQ ID NO:3 … (protein, C-terminal V5 and His6 tags (pDEST42); E. coli BL21(DE3) Star; purified) MFKSGAGQLQPGKDTGEIQIRFNKSDWSNYNQGNDWSWLQSMTSYGENEKVTAYIDGVLVWGQEPSGATPAPTMTVAPTATPTPTLSPTVTPTPAPTQTAIPTPTLTPNPTPTSSIPDDTNDDWLYVSGNKIVDKDGRPVWLTGINWFGYNTGTNVFDGVWSCNLKDTLAEIANRGFNLLRVPISAELILNWSQGIYPKPNINYYVNPELEGKNSLEVFDIVVQTCKEVGLKIMLDIHSIKTDAMGHIYPVWYDEKFTPEDFYKACEWITNRYKNDDTIIAFDLKNEPHGKPWQDTTFAKWDNSTDINNWKYAAETCAKRILNINPNLLIVIEGLEAYPKDDVTWTSKSSSDYYSTWWGGNLRGVRKYPINLGKYQNKVVYSPHDYGPSVYQQPWFYPGFTKESLLQDCWRPNWAYLMEENIAPLLIGEWGGHLDGADNEKWMKYLRDYIIENHIHHTFWCFNANSGDTGGLVGYDFTTWDEKKYSFLKPALWQDSQGRFVGLDHKRPLGTNGKNINITTYYNNNEPEPVPASK | about 60% | 25 | can produce both cellobiose and glucose; also recorded: cellobiose is the predominant sugar released | Yes | not active; also recorded: not hydrolyzed | active; also recorded: hydrolyzed | – | – | – | – | up to 50% | 2200 | 0.71 | 2400 | 0.62 | 0.817 | 80 °C | 4.7-5.5
